Reference: the nanobody polyreactivity screen of Harvey et al. (2022)

Assay: yeast display, Sf9 membrane polyspecificity reagent, FACS + sequencing; frameworks hold sequencing errors
Summary of the method: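 After 36–48 hours of galactose induction, yeast (Saccharomyces cerevisiae BJ5465) displaying a synthetic nanobody library were stained at 4 °C for 1 hour with 10% biotinylated, detergent-solubilized Sf9 membrane reagent. Streptavidin microbeads enriched the stained cells before FACS sorting into low and high (top ~1%) gates on anti-HA and streptavidin fluorescence. Each clone's polyreactivity label reflects its gate of origin.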

Sequence	polyreactivity (PSR sort gate)
QVQLVESGVGLVQAGGSLRLSCAASGFIFRFYTMGWYRQAPGKERELVAAISGSGGRTYYADSVKGRFTISRDYANNTVYVQMNRLKPEDTEVYYCNKQFLYPSYDYWGQGTQVTVSS	high polyreactivity
QVQLVESGVGLVQAGGSLRLSCAASGFTFAFYAMGWYRQAPGKERELVAAISRRGGSTTYADSVKGRFTISRDNAKYTVYLQMNSLKPEDTAVYYCNAVSTRNPGPDYYYWGQGTQVTVSS	high polyreactivity
QVQLVESGVGLVQAGGSLRLSCAASGFTFKSYTMGWYRQAPGKERELVANISRRGGSTYYADSVKGRFTISRDTAKNTVYLQMNRLKPEDTAVYYCAADAYGFLYTTYRYFYWGQGTQVTVST	high polyreactivity
QVQLVESGVGLVQAGGSLRLSCAASGGIFAVYAMGWYIQAPGKERELVAAITWRGGSTRYADSVKGRFTISRDNAKNTVYLQMNSLKPEDTAVYYCAVRSTGYPSRYYYWGQGTQVTVSS	high polyreactivity
QVQLVESGVGLVQAGGSLRLSCAASGITLYNYAMGWYRHAPGKERELVAAISLSGGRTYYADSVKGRFTISRDNAKNTVYLQMNSLKPEDTAVYYCAADWLNSDPYNYWGQGTQVTVSS	low polyreactivity
QVQLVESGVGLVQAGGSLRLSCAASGLIFGYYAMGRNRQAPGKERELVAAITRGGGRTYYADSVKGRFTISRDNAKNTVYLQMNSLKPEDTAVYYCNAVRRVSSAGEFDYWGQGTQVTVSS	high polyreactivity
QVQLVESGVGLVQAGGSLRLSCAASGLTFLYYAMAWLRQAPGKERELVAVISSGGRTYYADSVKGRFTISRDNAKNTVYLQMHSLKPEDTAVYYCAAYDPYYQSTFDYWGQGTQVTVSS	high polyreactivity
QVQLVESGVGLVQAGGSLRLSCAASGNTISYNAMGWSRQAPGKERELVAAIRWSGGSTNYADSVKGRFTISRDNAKNTVYLQMNSLKPEDTAVYYCNARYASTNYGWISYYWGQGNQVTVSS	high polyreactivity
QVQLVESGVGLVQAGGSLRLSCAASGRIFAPYAMGWYRQAPGKERELVAAIRWRGGSTSYADSVKGRFTISRDNAKNTVYLQMNSLKPEDTAVYYCNADYGFSFYWYDYWGQGTQVTVSS	low polyreactivity
QVQLVESGVGLVQAGGSLRLSCAASGRIFRGYAMGWYRQAPGKEREFVAAISWSGGDTYYADSVKGRFTISRDNAKNTVYLQMNSLKAEDTAVYYFATEYRLIPGPFVWPYDYWGQGTQVTVSS	high polyreactivity
QVQLVESGVGLVQAGGSLRLSCAASGRIFRRYVMGWYRQAPGKEREFVAAITSRGGRTYYADSVKGRFTISRDNAKNTVYLQMNSLKPEDTAVYYCAARYSRSMDYWGQGTQVTVSS	high polyreactivity
QVQLVESGVGLVQAGGSLRLSCAASGRIFYPYAMGWYRQAPGKERELDAVINGSGGSTYYADSVKGRFTISRDYAKNTVYLQMNSLKPEDTAVYYCARVWSRRYGGWYRNYYWGQGTQVTVSS	high polyreactivity
QVQLVESGVGLVQAGGSLRLSCAASGRIFYTYAMGWYRQAPGKERELVAAISSRTGSTYYADSVKGRFTISRDNAKNTVYLQMNSLKPEDTAVYYCAAYLWKSKRKLDYWGQGTQVTVSS	high polyreactivity
QVQLVESGVGLVQAGGSLRLSCAASGRIFYYNAMGWYRQAPGKVRELVASISWDASSTYYADSVKGRFTISRDNAKNTVYLQMNSLKPEDTAVYYCNKKHLYRQYDYWGQGTQVTVTS	low polyreactivity
QVQLVESGVGLVQAGGSLRLSCAASGSIFHIYAMGWYRQAPGKERELVAAMTYADSVKGRFTISRVNAKNTVYLQMNSLKPEDTAVYECNADNWPRIHGSAYDYWGQGTQVTVSS	low polyreactivity
QVQLVESGVGLVQAGGSLRLSCAASGSIFQKYTMGWYRQAPGKERQLVAAITRSGGSTYYADSVKGRFTISRDNAKNTVYLQMNSLKAEDSAVYYCNKRYIPWAYDYWGQGTQVTVSS	high polyreactivity

Sequence	polyreactivity (PSR sort gate)
QVQLVESGVGLVQAGGSLRLSCAASGSIFYHYVMGWYRQAPGKERELVAGISWSGVSTYYADSVKGRFTISRDNAKNTVYLQMNSLKPEDTADYYCAAVYRQSRLHTFGYWGQGTQVTVSS	high polyreactivity
QVQLVESGVGLVQAGGSLRLSCAASGSTFDFNAMGWYRPAPGKERELVAAITGSGGSTDYADSVKGRFTISRDNAKNTVYLQMNSLKPEDTAVYYCNAGKTIDYRDGVGYDHWGQGTQVTVSS	low polyreactivity
QVQLVESGVGLVQAGGSLRLSCAASGSTFWSYTMGWYRQAPGKERELVARIRTTGGSTYADSVKGRFTISRDNAKNTVYLQMNSLKPEDTAVYYCAKEGWLRYYPWYGGDYWGQGTQVTVSS	high polyreactivity
QVQLVESGVGLVQAGGSLRLSCAASGYIFRLYAMGGYRQAPGKERELVATITASGGTYYADSVKGRFTISRDNAKNTVYLQMNSLKPEDTAVYYCAAAKLRRLSRVRYGYWGQGTQVTVSS	high polyreactivity
QVQLVESGVGLVQAGGSLRLSCAATGFTFDENAMGWYRQAPGINYSGASTYYAYSVKGRFTISRDNAKNTVYLQMNSLKPEDTAVYYCAAEVVAQMNYWGQGTQVTVSS	low polyreactivity
QVQLVESGVGLVQAGGSLRLSCADSGFTFRRYVMGWYRQAPGKERELVAGISASGDSTYYADSVKGRFTISRDYAKNTFYLQMNSLKPEDTAVYYCATVARYRYLESYYWGQGTQVTVSS	high polyreactivity
QVQLVESGVGLVQAGGSLRLSCADSGSIFVINAMGWYRQASGKERELVATIRARAGSTYYADSVKGRFTISRDNAKNTVYLQMNSLKPEDTAFYYCAARLKSYRVEYWGQGTQVTVSS	high polyreactivity
QVQLVESGVGLVQAGGSLRLSCASSGFIFNYNTMGWYRQAPGKETELVAAISSSGGSTYYADSVKGRFTISRDNAKNTVYLQMNSLKPEDTAVYYCGAGANAQRVPNGDYWGQGTQVTVSS	low polyreactivity
QVQLVESGVGLVQAGGSLRLSCASSGFTFYYYAMGWYRQAPGKERELVAAIDTSDGSTYYADSVKGRFTISRDNAKNTVYLQMNSLKPEDTAVYYCAAEVDWVPFLLDYWGQGTQVTVSS	low polyreactivity
QVQLVESGVGLVQAGGSLRLSCASSGRTFPTYAMGWYRQAPGKERELVAAIRISGGRTYYADSVKGRFTISRDNAKNTVDLQMNSLKPEDTAVYYCAADTYASYESWGQGTQVSVSS	high polyreactivity
QVQLVESGVGLVQAGGSLRLSCASSGRTFYDYAMGWYRQAPGKERELVATISSRGDGTYYADSVKGRFTISRDYAKITVCLLMNSLKPEDTAVYYCAARYRRVHSGYGYWGQGTHVTVSS	high polyreactivity
QVQLVESGVGLVQAGGSLRLSSAASGIIFVSNAMRWYRQAPGKERELVATINWSDDSTYYADSVKGRFTISRDNAKKTVSLQMNSLKADYTAVYYCYCGQGTQVTVSS	low polyreactivity
QVQLVESGVGLVQAGGSLSLSCAASGRIFPVYAMGWYRQAPGKERELVATISYSGSSTYYADSVKGRFTISRDNAKNNVYLLMNSLKPEDTAVYYCNADAFGPQCVQYYYWGQVTQVTVSS	low polyreactivity
QVQLVESGVGLVQAGGTLRLSCAASGFTFVRYAMAWYRQAPGKEREFVASISARGCNTFYADSVKGRFTISRDNAKNTVYLQMNSLKPEDTAVYYCAKRGPYGTGYGYWGQGTQVTVSS	high polyreactivity
QVQLVESGVGLVQAGGTLRLSCAASGITFLQYAMGWYRQAPGKERELVAGITRSGGAGTYYADSVKGRFTISRDNAKNTVYLQMNSLKPEDTAVYYCAAETDTPSLYQDMYYWGQGTQVTVSS	high polyreactivity
QVQLVESGVGLVQAGGTLRLSCAASGRIFTINAMGWYRQAPGKEREFVAAISGSGGTTYYADSVKGRLTISRDNAKNTVYLQMNSLKPEDTAVYYCAVSQSWYWYYASDYWGQGTQVTVSS	low polyreactivity
